Here are results for eight molecules from patent publication US20140056903A1 (Regeneron, published 2014).

The target in assay [1] is T1, human GFRα3 expressed with a C-terminal myc-myc-hexahistidine tag (human, UniProt O60609 32-374, biotinylated (sites not given) in ELISA format 2 and in the Octet cross-competition; not in SPR).
T1 construct: also called hGFRα3-mmh; hGFRα3-mmH
Put plainly: Octet cross-competition; biotin-hGFRα3-mmH pre-saturated with first antibody H4H2296S. As for the experimental part:
A cross-competition assay was conducted to assess the ability of select antibodies to compete with one another for binding to human GFRα3 using an Octet RED384 biosensor (Fortebio Inc.). The entire experiment was performed at 25° C. with the flow rate of 1000 rpm in Octet HBST buffer (0.01 M HEPES pH7.4, 0.15M NaCl, 3 mM EDTA, 0.05% v/v Surfactant P20, 0.1 mg/mL BSA). To assess whether 2 antibodies were able to compete with one another for binding to their respective epitopes on biotinylated recombinant human GFRα3 expressed with a C-terminal myc-myc-hexahistidine tag (biotin-hGFRα3-mmH; SEQ ID:370), around ˜1.2 nm of biotin-hGFRα3-mmH was first captured onto streptavidin-coated Octet sensor tips (Fortebio Inc, #18-5019) by submerging the tips for 1 minute into a 10 μg/mL solution of biotin-hGFRα3-mmH. The antigen coated sensor tips were then placed into wells containing 25 μg/mL solution of a first anti-GFRα3 monoclonal antibody for 4 minutes to saturate the biotin-hGFRα3-mmH surface. The sensor tips were then subsequently dipped into wells containing 25 μ/mL solution of a second anti-GFRα3 monoclonal antibody. The sensor tips were washed in Octet HBST buffer in between every step of the experiment. The real-time binding response was monitored during the course of the experiment and the binding response at the end of every step was recorded as shown in FIG. 9. The response of mAb-2 binding to biotin-hGFRα3-mmH pre-complexed with the first antibody was compared and competitive/non-competitive behavior of different anti-GFRα3 monoclonal antibodies was determined.

In assay [2] the target is T1, human GFRα3 expressed with a C-terminal …. Put plainly: SPR, Ab captured, 37C. In outline:
(§1)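 Antibodies captured on anti-mouse or anti-human IgG CM5 surfaces, in HBS-EP or PBS-P20 at pH 7.4. mmh-tagged GFRα3 injected at 200–7.4 nM and Fc-tagged at 100–3.7 nM, with association up to 4 min and dissociation up to 20 min. Data fitted 1:1; KD=kd/ka, t1/2=ln2/(60*kd).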

For assay [3], the target named is T2, human GFRα3 expressed with a C-terminal mFc tag (human).
T2 construct: also called hGFRα3-mFc
T2 chain: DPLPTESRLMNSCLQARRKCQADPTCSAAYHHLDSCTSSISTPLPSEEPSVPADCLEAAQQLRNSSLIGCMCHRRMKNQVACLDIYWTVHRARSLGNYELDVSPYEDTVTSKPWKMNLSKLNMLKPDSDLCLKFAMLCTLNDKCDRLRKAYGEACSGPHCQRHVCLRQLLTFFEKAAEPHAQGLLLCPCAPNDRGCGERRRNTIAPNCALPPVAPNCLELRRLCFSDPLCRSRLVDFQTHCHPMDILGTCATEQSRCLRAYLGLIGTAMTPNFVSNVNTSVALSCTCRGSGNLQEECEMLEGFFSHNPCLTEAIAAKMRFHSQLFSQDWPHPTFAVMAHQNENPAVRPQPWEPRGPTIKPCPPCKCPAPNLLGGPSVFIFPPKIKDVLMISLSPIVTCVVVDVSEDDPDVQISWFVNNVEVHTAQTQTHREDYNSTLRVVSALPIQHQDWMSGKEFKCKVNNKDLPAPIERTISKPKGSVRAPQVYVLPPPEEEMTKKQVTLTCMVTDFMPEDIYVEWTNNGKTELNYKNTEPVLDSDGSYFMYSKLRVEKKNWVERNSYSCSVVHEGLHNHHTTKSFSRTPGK
The assay is described as follows: SPR, Ab captured, 37C. The gist of the method:
as §1
In general terms: In SPR one partner is held on a chip, and binding of the other changes the refractive index at the surface.

In assay [4] the target is T3, monkey GFRα3 expressed with a C-terminal myc-myc-hexahistidine tag (monkey (Mf), UniProt O60609 32-374 (human entry), limits assumed).
T3 construct: also called MfGFRα3-mmh; MfGFRα3-mmH
T3 chain: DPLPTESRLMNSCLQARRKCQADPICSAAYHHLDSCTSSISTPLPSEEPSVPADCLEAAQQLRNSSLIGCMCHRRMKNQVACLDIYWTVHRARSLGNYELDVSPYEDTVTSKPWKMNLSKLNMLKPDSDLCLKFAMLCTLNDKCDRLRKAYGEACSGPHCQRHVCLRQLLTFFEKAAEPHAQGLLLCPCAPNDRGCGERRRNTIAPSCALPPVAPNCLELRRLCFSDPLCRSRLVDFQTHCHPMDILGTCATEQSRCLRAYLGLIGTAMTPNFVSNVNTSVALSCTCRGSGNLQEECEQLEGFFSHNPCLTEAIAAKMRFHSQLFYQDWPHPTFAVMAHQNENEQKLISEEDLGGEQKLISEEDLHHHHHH
Put plainly: SPR, Ab captured, 37C. The gist of the method: as §1

B1: H4H2212N (antibody, human IgG4, V domains shown)
VH: EVQLLESGGGLVQPGGSLRLSCAASGFTFSSYAMSWVRQGPGKGLEWVSGISGSGGSTYNADSVKGRFTISRDNSKNTLYLQMNSLRAEDTAVYYCAKDSGTYWYYFDYWGQGILVTVSS
VL: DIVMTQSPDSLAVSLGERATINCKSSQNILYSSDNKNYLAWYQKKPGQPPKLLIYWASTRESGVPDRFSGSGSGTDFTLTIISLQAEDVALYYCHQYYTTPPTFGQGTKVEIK
notes: human IgG4 Fc (H4H)
For the molecule B1, the “binding response of second antibody (nm)” value in assay [1] worked out at 1.76 nm.

B2: H4H2291S (antibody, human IgG4, V domains shown)
VH: EVQLVESGGGLVQPGESLRLSCAASGFTFSNYAMSWVRQAPGKGLEWVSVISGSGGSTYYADSVKGRFTMSRDNSKNTLYLQMNSLRAEDTAVYYCAKPPSRAARYFNYGMDVWGQGTTVTVSS
VL: AIRMTQSPSSVSASVGDRVTITCRASQGISSWLAWYQQKPGKAPKLLIYAASSLQSGVPSRFSGSGSGTDFTLTISSLQPEDFATYYCQQANSFPFTFGGGTKVEIK
notes: human IgG4 Fc (H4H)
A word on the Kd: it is the equilibrium constant for the complex coming apart. As usually defined, the koff is the rate constant with which the complex falls apart. Usually kon stands for the rate constant with which the complex forms. For B2, in assay [2], the Kd came to 0.58 nM, the koff was 0.000323 s⁻¹, the kon was found to be 558000 M⁻¹ s⁻¹ and the t1/2 came to 36 min. In assay [3], the dissociation constant Kd stood at 0.0289 nM, the koff turned out to be 3.84e-05 s⁻¹, the on-rate constant (kon) worked out at 1.33e+06 M⁻¹ s⁻¹ and the t1/2 amounted to 301 min. In assay [4], this molecule registered a Kd of 1.94 nM, a koff of 0.000693 s⁻¹, a kon of 357000 M⁻¹ s⁻¹ and a t1/2 of 17 min. Besides, the “binding response of second antibody (nm)” value in assay [1] was 0.18 nm.

B3: H4H2296S (antibody, human IgG4, V domains shown)
VH: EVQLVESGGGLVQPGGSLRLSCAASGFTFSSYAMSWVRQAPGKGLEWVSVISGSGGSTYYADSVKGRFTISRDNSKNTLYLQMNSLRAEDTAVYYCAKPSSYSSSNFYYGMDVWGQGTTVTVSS
VL: DIVMTQSPSSVSASVGDRVTITCRASQGISSWLAWYQQKPGKAPKLLIYAASSLRSGVPSRFSGSGSGTDFTLTITSLQPEDFATYYCQHTNSFPFTFGPGTKVEIK
notes: human IgG4 Fc (H4H)
Turning to B3, in assay [2], the Kd came out at 0.802 nM, the off-rate (koff) is 0.000614 s⁻¹, the on-rate (kon) stood at 765000 M⁻¹ s⁻¹ and the t1/2 turned out to be 19 min. In assay [3], this molecule had a Kd of 0.0294 nM, a koff of 4.74e-05 s⁻¹, a kon of 1.61e+06 M⁻¹ s⁻¹ and a t1/2 of 244 min. Moreover, in assay [4], binding was put at a Kd of 10.3 nM, the koff was determined as 0.00285 s⁻¹, the kon worked out at 277000 M⁻¹ s⁻¹ and the t1/2 was determined as 4 min. Moreover, in assay [1], the “binding response of second antibody (nm)” value was 0.07 nm.

B4: H4H2295S (antibody, human IgG4, V domains shown)
VH: EVQLVESGGGLVQAGGSLRLSCVASGFTFSSYAMSWVRQAPGKGLEWVSAISGSGGSTYSADSVKGRFTISRDNSKNTLYLQMNSLRAEDTAVYYCTKPSSYSSSNFYYGMDVWGQGTTVTVSS
VL: DIQMTQSPSSVSASVGDRVTITCRASQGISSWLAWYQQKPGKAPKLLIYTASSLQSGVPSRFSGSGSRTDFTLTISSLQPEDFATYYCQQTNSLPLTFGPGTKVEIK
notes: human IgG4 Fc (H4H)
In assay [2], B4 gave a Kd of 1.77 nM, a koff of 0.00119 s⁻¹, an association rate constant (kon) of 669000 M⁻¹ s⁻¹ and a t1/2 of 10 min. In assay [3], this molecule gave a Kd of 0.0301 nM, a koff of 4.88e-05 s⁻¹, a kon of 1.62e+06 M⁻¹ s⁻¹ and a t1/2 of 237 min. Moreover, in assay [4], the Kd stood at 20.4 nM, the koff turned out to be 0.00561 s⁻¹, the kon stood at 276000 M⁻¹ s⁻¹ and the t1/2 is 2 min. For the same molecule, the “binding response of second antibody (nm)” value in assay [1] was found to be 0.05 nm.

B5: H4H2294S (antibody, human IgG4, V domains shown)
VH: EVQLVESGGGLVQPGGSLRLSCAASGFTFSSYAMSWVRQAPGKGLEWVSVISGSGGSTYYADAVKGRFTISRDNSKHTLYLQMNSLRAEDTAVYYCTKPSSYSSSNFYYGMDVWGQGSTVTVSS
VL: DIQLTQSPSSVSASVGDRVTITCRASQGISSWLAWYQQKPGKAPKLLIYAASSLQSGVPSRFSGSGSGTDFTLTISSLQPEDFATYYCQQTNSFPFPFGPGTKVDIK
notes: human IgG4 Fc (H4H)
Take B5: in assay [2], the affinity, expressed as Kd, was 0.338 nM; the koff came to 0.000261 s⁻¹; the kon turned out to be 773000 M⁻¹ s⁻¹; the t1/2 was 44 min. In assay [3], this molecule displayed a Kd of 0.0209 nM, a koff of 3.46e-05 s⁻¹, a kon of 1.66e+06 M⁻¹ s⁻¹ and a t1/2 of 334 min. Also, in assay [4], the Kd stood at 2.25 nM, the koff worked out at 0.000974 s⁻¹, the association rate constant (kon) was 433000 M⁻¹ s⁻¹ and the t1/2 is 12 min. Further, in assay [1], the “binding response of second antibody (nm)” value came to 0.04 nm.

B6: H4H2236N3 (antibody, human IgG4, V domains shown)
VH: EVQLLESGGNLVQPGGSLRLSCAASGFTFSSYAMTWVRQAPGKGLEWVSTISGSGTSTYYADSVKGRFTISRDNSRDTVFLQMNSLRAEDTAVYYCSKPSALRFLHWLAMDVWGQGTLVTVSS
VL: DIQMTQSPSSLSAFVGDRVTITCRASQDIRNYLDWFQQKPGKAPKSLIYAASNLQSGVPSRFGGSGSGTDFTLTINSLQPEDFVTYYCQQYNSYPPTFGGGTKVEIK
notes: human IgG4 Fc (H4H)
Consider B6, for which, in assay [2], the Kd turned out to be 0.382 nM, the koff came to 0.000748 s⁻¹, the on-rate (kon) came out at 1.96e+06 M⁻¹ s⁻¹ and the t1/2 amounted to 15 min. In addition, the “binding response of second antibody (nm)” value in assay [1] amounted to 0.07 nm.

B7: H4H2243N2 (antibody, human IgG4, V domains shown)
VH: QVQLVQSGAEVKKPGASVKVSCKASGYTFTSYGIIWVRQAPGQGLEWMGWISGYNGNTNYAQNLQGRVTMTTDTSTTTAYMELRSLRSDDTAVYYCARWGIATRPYYYYGMDVWGQGTTVTVSS
VL: DIQMTQSPSSLSASVGDRVTITCRASQDITNYLAWFQQKPGKAPKSLIYAASSLQSGVPSKFSGSGSGTDFTLTISSLQPEDFATYYCQQYNSYPPTFGPGTKVDIK
notes: human IgG4 Fc (H4H)
For B7, in assay [2], the Kd is 5.2 nM, the koff is 0.00244 s⁻¹, the kon worked out at 469000 M⁻¹ s⁻¹ and the t1/2 is 5 min. In addition, the “binding response of second antibody (nm)” value in assay [1] came to 0.06 nm.

B8: H4H2342P (antibody, human IgG4, V domains shown)
VH: EVQLLESGGGLVQPGGSLRLSCAASGFTFSTYAMSWVRQAPGKGLEWVSAIRGNGVNTYYGDSMKGRFTISRDNSKDTLYLQMNSLRAEDTAVYYCAKNKWELLVFEYWGQGTLVTVSS
VL: DIQMTQSPSSLSASVGDRVTITCRASQDISNYLAWYQQKPGKVPKLLIYAASTLQSGVPFRFSGSGSGTDFTLTISSLQPEDVATYYCQKYNSAPPFGPGTKVDIK
notes: human IgG4 Fc (H4H)
In assay [2], B8 gave a dissociation constant (Kd) of 2.03 nM, a koff of 0.000671 s⁻¹, a kon of 330000 M⁻¹ s⁻¹ and a t1/2 of 17 min. Besides, in assay [3], the Kd turned out to be 0.0354 nM, the dissociation rate constant (koff) stood at 4.28e-05 s⁻¹, the kon was found to be 1.21e+06 M⁻¹ s⁻¹ and the t1/2 is 270 min. In assay [4], this molecule returned a Kd of 11.1 nM, an off-rate (koff) of 0.00166 s⁻¹, a kon of 150000 M⁻¹ s⁻¹ and a t1/2 of 7 min. In addition, the “binding response of second antibody (nm)” value in assay [1] was found to be 0.03 nm.
